Test results reported in paper PMC9167920.

Molecular target: CTSL-treated SARS-CoV-2 S protein ectodomain SR (cleaved at CS-1, T259/A260, and CS-2, Y636/S637) (SARS-CoV-2) (UniProt P0DTC2)
Assay: cryo-EM structure

Substance: CTSL-treated SARS-CoV-2 S protein ectodomain SR (cleaved at CS-1, T259/A260, and CS-2, Y636/S637) (from UniProt P0DTC2) (domain or fragment)
- stoichiometry N: 3
